As a reminder, the Kd is the free concentration of one partner at which half of the binding sites on the other are occupied at equilibrium, for simple one-to-one binding. A lower Kd goes with a tighter complex. Broadly, the koff is a measure of how fast the partners let go of each other. A higher koff goes with fast dissociation. Broadly, the kon is the rate constant with which the complex forms.

Sequences and labels used below:
B1: Human Factor VIIa (human plasma FVIIa) (enzyme, UniProt P08709 61-466, looked up)
chain: ANAFLEELRPGSLERECKEEQCSFEEAREIFKDAERTKLFWISYSDGDQCASSPCQNGGSCKDQLQSYICFCLPAFEGRNCETHKDDQLICVNENGGCEQYCSDHTGTKRSCRCHEGYSLLADGVSCTPTVEYPCGKIPILEKRNASKPQGRIVGGKVCPKGECPWQVLLLVNGAQLCGGTLINTIWVVSAAHCFDKIKNWRNLIAVLGEHDLSEHDGDEQSRRVAQVIIPSTYVPGTTNHDIALLRLHQPVVLTDHVVPLCLPERTFSERTLAFVRFSLVSGWGQLLDRGATALELMVLNVPRLMTQDCLQQSRKVGDSPNITEYMFCAGYSDGSKDSCKGDSGGPHATHYRGTWYLTGIVSWGQGCATVGHFGVYTRVSQYIEWLQKLMRSEPRPGVLLRAPFP
notes: also called hFVIIa; Human FVIIa
B2: Lipidated rabbit tissue factor (receptor, UniProt P24055 33-292, looked up)
chain: ADTTGRAYNLTWKSTNFKTILEWEPKSIDHVYTVQISTRLENWKSKCFLTAETECDLTDEVVKDVGQTYMARVLSYPARNGNTTGFPEEPPFRNSPEFTPYLDTNLGQPTIQSFEQVGTKLNVTVQDARTLVRRNGTFLSLRAVFGKDLNYTLYYWRASSTGKKTATTNTNEFLIDVDKGENYCFSVQAVIPSRKRKQRSPESLTECTSREQGRAREMFFIIGAVVVVALLIIVLSVTVYKCRKARAGPSGKESSPLNIA
notes: Amine-coupled as a proteoliposome to flow cell 2 of the Biacore chip; Also used to start thrombin generation in rabbit plasma; also called rTF; rabbit TF

Experiment [1] concerns the target B2. In words: SPR (Biacore). The protocol: (§1) The GE procedure for proteoliposome immobilization (amine coupling) protocol was used to coat PS/PC/rTF on flow cell 2, and PS/PC/hTF on flow cell 3. Flow cells were equilibrated with running buffer (15 mM Hepes, 150 mM NaCl, 5 mM CaCl2, 25 mM Arginine, 0.01% Tween 80, pH7.4) at a flow rate of 5 μL/min. Kinetic analyses were performed at 37° C. by flowing consecutively increasing concentrations of each analyte […] in the running buffer (15 mM. HEPES, 150 mM NaCl, 5 mM CaCl2, 25 mM Arginine, 0.01% Tween 80, pH 7.4) over the sensor chip for 5 min followed by a 10 min dissociation period at a flow rate of 30 μL/min in parallel.
(§2) Analyte binding to the lipidated TF was determined by subtracting the RU values noted in the reference flow cell 1 from flow cell 2 and 3. Binding of analytes to the TFs was monitored in real time to obtain on (ka) and off (kd) rates. The equilibrium dissociation constant (KD) was calculated from the observed ka and kd.
(In general: Surface plasmon resonance follows binding to a sensor surface in real time, without labels.)

For experiment [2], the target named is B1. In words: SPR (Biacore 3000), lipidated rabbit TF on chip. As to the method:
as §1, §2
(§3) Based on the saturation concentration of the analyte, binding analysis was performed using saturating analyte concentrations of 0-500 nM for rabbit TF and 0-50 nM for human TF. Chi squared (χ²) analysis was carried out between the actual sensorgram and the calculated on- and off-rates to determine the accuracy of the analysis.

Experiment [3] concerns the target B1. Briefly: SPR (Biacore 3000), lipidated rabbit TF amine-coupled, analyte 0-500 nM, 37 C. As to the method:
as §1, §2, §3

For the molecule B1, the “fold lower affinity than to lipidated hTF” value in experiment [1] was about 10 fold.
In experiment [2], B2 displayed an equilibrium dissociation constant (Kd) of 39.5 nM. Moreover, in experiment [3], the Ka turned out to be 2.5e+07 M⁻¹, the Kd worked out at 40 nM, the koff worked out at 0.0014 s⁻¹ and the kon was 34000 M⁻¹ s⁻¹.

These data come from patent publication US20210236649A1 (ICONIC THERAPEUTICS, published 2021).
